Results: PMC3695727

Biological target: Orai expressed in cell membranes (Drosophila melanogaster) (UniProt Q9U6B8)
Assay: cross-linking

stoichiometry N: 6
Substance: Orai expressed in cell membranes (from UniProt Q9U6B8 1-351) (natural protein)
